# Where two headings read alike, the source gives them in different places.
# Legend:
# [1] = molecular target: T1, cynomolgus PD-1 expressed on cells (cynomolgus monkey, UniProt B0LAJ3 25-288); experiment: flow cytometry, HEK293 cyPD1
# T1 construct: also called CHO-S Cyno-PD-1; 293:cyPD1
# [2] = molecular target: T2, human PD-1 expressed on cells (human, UniProt Q15116 25-288); experiment: flow cytometry, HEK293 huPD1
# T2 construct: whole, on cells; cell line named under assay; also called CHO-S hPD-1; Raji PD-1
# T2 sequence (Q15116 25-288): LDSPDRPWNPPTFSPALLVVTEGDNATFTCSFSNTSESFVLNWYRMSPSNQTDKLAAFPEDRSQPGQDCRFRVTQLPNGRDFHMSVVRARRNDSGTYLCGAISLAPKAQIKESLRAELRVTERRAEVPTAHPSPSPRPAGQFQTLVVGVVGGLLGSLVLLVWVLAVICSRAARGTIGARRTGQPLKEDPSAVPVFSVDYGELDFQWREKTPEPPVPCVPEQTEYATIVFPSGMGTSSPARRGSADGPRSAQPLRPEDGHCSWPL
# [3] = molecular target: T3, cynoPD-1 His (AcroBiosystems PD1-C5223) (cynomolgus monkey, UniProt B0LAJ3 25-170); experiment: BLI (legend: SPR), Ab on sensor
# T3 construct: also called cPD-1; cynomolgus PD-1 His-tagged
# T3 sequence (B0LAJ3 entry or part of it limits assumed): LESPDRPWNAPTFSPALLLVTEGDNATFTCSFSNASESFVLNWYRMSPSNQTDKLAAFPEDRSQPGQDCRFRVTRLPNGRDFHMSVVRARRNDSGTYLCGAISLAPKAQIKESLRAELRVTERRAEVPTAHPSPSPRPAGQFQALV
# hPD-1 His-tagged = molecular target: T4, hPD-1 His-tagged (human, UniProt Q15116 25-167); experiment: BLI (legend: SPR), Ab on sensor
# T4 construct: also called recombinant hPD-1 (AcroBio)
# T4 sequence (Q15116 25-167 limits assumed): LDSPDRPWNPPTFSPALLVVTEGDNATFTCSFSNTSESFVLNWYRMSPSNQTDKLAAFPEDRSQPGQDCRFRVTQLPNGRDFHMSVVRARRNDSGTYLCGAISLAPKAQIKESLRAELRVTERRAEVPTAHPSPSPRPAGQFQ
# [4] = molecular target: T5, recombinant hPD-1 (construct not stated) (human, UniProt Q15116 25-167, limits assumed); experiment: ELISA
# T5 construct: also called huPD-1; Human PD1
# T5 sequence (Q15116 25-167 limits assumed): as above
# [5] = molecular target: T6, recombinant cynoPD-1 (construct not stated) (cynomolgus monkey, UniProt B0LAJ3 25-170); experiment: ELISA
# T6 construct: not shown: probably His as elsewhere
# [6] = molecular target: T2, human PD-1 expressed on cells; experiment: flow cytometry, CHO-S hPD-1
# Protocol: CHO-S hPD-1 cells were incubated with a 5-fold serial dilution of the indicated humanized antibodies. Antibody binding was detected with goat anti-human IgG-PE. MFI were plotted over the antibody concentration to obtain EC50 values.
# [7] = molecular target: T2, human PD-1 expressed on cells; experiment: flow cytometry, CHO-S hPD-1; remark: listed apart in the source
# [8] = molecular target: T7, hPD-1 Avi-Tag Biotin (AcroBiosystems PD1-H82E4) (human, UniProt Q15116 25-167, biotin on Avi-Tag); experiment: SPR, Ab captured, PD-1 analyte
# T7 construct: bought; also called human PD-1
# T7 sequence (Q15116 25-167 limits assumed): as above
# Protocol: (§1) Anti-human Fc IgG (Jackson) was immobilized on amine reactive CM5 chips (GE Healthcare) using 1×HBS-EP+ running buffer (GE Healthcare). The test antibodies were captured at flow rate 10 μl/min with 30 s contact time. […] Regeneration was carried out with 10 mM Glycine-HCl, pH 1.5 at flow rate 10 μL/min. This protocol is to be used, unless stated otherwise, in determination of Kd wherever used to define the KD of antibodies specified herein, with adaptions where necessary with regard to the nature of the interaction partners.
# [9] = molecular target: T3, cynoPD-1 His (AcroBiosystems PD1-C5223); experiment: SPR, Ab captured, PD-1 analyte
# Protocol: as §1
# [10] = molecular target: T7, hPD-1 Avi-Tag Biotin (AcroBiosystems …); experiment: SPR, Ab captured, PD-1 analyte; remark: listed apart in the source
# Protocol: as §1, with “partners. […]” for “partners.”
# [11] = molecular target: T1, cynomolgus PD-1 expressed on cells; experiment: flow cytometry, CHO-S Cyno-PD-1
# [12] = molecular target: T3, cynoPD-1 His (AcroBiosystems PD1-C5223); experiment: SPR; second ka column, taken as cynoPD-1
# Protocol: as §1
# Every position in the antibody VH and VL-CDRs was mutated by PCR using a mutagenic primer containing a degenerate codon NNS at a specific CDR position, introducing a combination of all 20 amino acids. The library of single mutants was screened by scFv capture ELISA using a redundancy factor of 4 (on 96-well plate er position). Clones displaying ≥2× ELISA signal compared to the wild-type scFv were sequenced, and clones with unique sequences were re-grown, re-screened by capture ELISA and ranked by dose-dependent ELISA on human and cyno antigens, and by FACS using human antigen expressing cells. Affinity improving mutations were used to design a combinatorial library using the Kunkel method. The library was screened by scFv capture ELISA using the redundancy factor of 4 (4× number of combinations). Clones displaying ≥2× ELISA signal compared to the wild-type scFv were sequenced, and clones with unique sequences were re-grown, re-screened by capture ELISA and ranked by dose-dependent ELISA on human and cyno antigens, and by FACS using human antigen expressing cells.
# T1 sequence (B0LAJ3 entry or part of it limits assumed): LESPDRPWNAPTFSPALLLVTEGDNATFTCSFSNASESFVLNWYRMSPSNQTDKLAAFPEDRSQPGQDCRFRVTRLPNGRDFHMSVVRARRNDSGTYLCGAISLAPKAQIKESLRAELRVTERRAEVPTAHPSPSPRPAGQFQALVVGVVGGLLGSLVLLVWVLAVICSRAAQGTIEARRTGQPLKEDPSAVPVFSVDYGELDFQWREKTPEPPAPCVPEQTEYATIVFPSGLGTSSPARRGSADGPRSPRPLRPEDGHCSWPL
EC50 [1],EC50 [2],Kd [3],koff [3],kon [3],Kd (hPD-1 His-tagged),koff (hPD-1 His-tagged),kon (hPD-1 His-tagged),EC50 [4],Max OD [4],EC50 [5],Max OD [5],EC50 [7],Max MFI [7],Kd [10],koff [10],kon [10],Max MFI [11],kon [12],Binder,further results
88.1 pM,92.1 pM,262 pM,3.67e-05 s⁻¹,140000 M⁻¹ s⁻¹,228 pM,3.79e-05 s⁻¹,166000 M⁻¹ s⁻¹,,,,,,,,,,,,"56H02 (antibody, V domains shown, used with CH1,2,3 and corresponding CL) VH: QVQLVQSGAEVKKPGASVKVSCKASGYTFTSYFMHWVRQAPGQGLEWMGLINPDGGNTDYAQKFQGRVTMTRDTSTSTVYMELSSLRSEDTAVYYCARDGNYYDSSGYYYPDAFDIWGQGTMVTVSS VL: SSELTQDPAVSVALGQTVRITCQGDSLRRFYASWYQQKPGQAPVIVIYGKDNRPSGTPDRFSGSTSGNTASLTITGAQAEDEADYYCNSRDSSGTHVVFGGGTKLTVL",
310 pM,179 pM,8380 pM,0.000783 s⁻¹,93400 M⁻¹ s⁻¹,1150 pM,0.000101 s⁻¹,87500 M⁻¹ s⁻¹,,,,,,,,,,,,"25I20 (antibody, V domains shown, used with CH1,2,3 and corresponding CL; also called 25120) VH: EVQLLESGGNLVQPGGSLRLSCAASGFTFSTYAMSWVRQAPGKGLEWVSTISGTGYSTYFADSVKGRFTISRDNSKNTLFLQMNSLRAEDTAVYYCAKEVYGDYWGQGTLVTVSS VL: not shown",
28.9 pM,18.9 pM,1300 pM,0.000294 s⁻¹,227000 M⁻¹ s⁻¹,1030 pM,0.000253 s⁻¹,244000 M⁻¹ s⁻¹,,,,,,,,,,,,"39F23 (antibody, V domains shown, used with CH1,2,3 and corresponding CL) VH: QVQLVESGGGVGQPGRSLRLSCAASGFTFSNYGMHWVRQAPGKGLEWVAVIWYDGSKKYYADSVKGRFTISRDNSKNTLYLQMNSLRVEDTAVYYCVGNSGHWGQGTLVTVSS VL: DIVMTQTPLSLPVTPGEPASISCRSSQSLLDSDDGNTYLDWYLQKPGQSPQLLIYTLSYRASGVPDRFSGSGSGTDFTLKISRVEAEDVGVYYCMQCIEFPHTFGGGTKVEIK",
,,,,,,,,710 pM,2.91 OD,400 pM,3.32 OD,5860 pM,40700 MFI,12500 pM,0.00124 s⁻¹,99200 M⁻¹ s⁻¹,109 MFI,73000 M⁻¹ s⁻¹,"z2-XVT458 (antibody, IgG1, V domains shown, full hIgG1; also called XVT458-z2; GH + T071V) VH: QVQLVQSGAEVKKPGASVKVSCKASGYTFTNFYIHWVRQAPGQGLEWMGSIYPNYGDTAYNQKFKDRVTMTVDTSTSTAYMELRSLRSDDTAVYYCARGYSYAMDYWGQGTTVTVSS VL: DIQMTQSPSSVSASVGDRVTITCSASQGISGDLNWYQQKPGKAPKLLIYHTSSLHSGVPSRFSGSGSGTDFTLTISSLQPEDFATYYCQYYSKDLLTFGGGTKLEIK",EC50 [6]: 4150 pM; Top MFI [6]: 45500 MFI; Kd [8]: 14000 pM; koff [8]: 0.00127 s⁻¹; kon [8]: 90700 M⁻¹ s⁻¹; Kd [9]: 54200 pM; koff [9]: 0.0031 s⁻¹; kon [9]: 57200 M⁻¹ s⁻¹
,,,,,,,,79 pM,3.3 OD,98 pM,3.54 OD,960 pM,43400 MFI,1220 pM,0.000173 s⁻¹,142000 M⁻¹ s⁻¹,258 MFI,134000 M⁻¹ s⁻¹,"XVT458-z2-m4 (antibody, V domains shown, IgG format; also called z2_XVT458m4) VH: QVQLVQSGAEVKKPGASVKVSCKASGYTFTNFYIHWVRQAPGQGLEWMGRIYPNYGITAYNQKFKDRVTMTVDTSTSTAYMELRSLRSDDTAVYYCARGYSYAMDYWGQGTTVTVSS VL: DIQMTQSPSSVSASVGDRVTITCSASQGISGDLNWYQQKPGKAPKLLIYHTSSRHSGVPSRFSGSGSGTDFTLTISSLQPEDFATYYCQGYSKDLLTFGGGTKLEIK",
,,,,,,,,51 pM,3.42 OD,56 pM,3.58 OD,840 pM,42400 MFI,787 pM,9.77e-05 s⁻¹,124000 M⁻¹ s⁻¹,335 MFI,111000 M⁻¹ s⁻¹,"XVT458-z2-m5 (antibody, V domains shown, IgG format; also called z2_XVT458m5) VH: QVQLVQSGAEVKKPGASVKVSCKASGYTFTNFYIHWVRQAPGQGLEWMGRIYPNYGITAYNQKFKDRVTMTVDTSTSTAYMELRSLRSDDTAVYYCARGYSYAMDYWGQGTTVTVSS VL: DIQMTQSPSSVSASVGDRVTITCSASQGIYGDLNWYQQKPGKAPKLLIYHTSSRHSGVPSRFSGSGSGTDFTLTISSLQPEDFATYYCQAYSKDLLTFGGGTKLEIK",
,,,,,,,,64 pM,3.49 OD,71 pM,3.69 OD,1560 pM,39500 MFI,439 pM,0.000101 s⁻¹,231000 M⁻¹ s⁻¹,59 MFI,213000 M⁻¹ s⁻¹,"XVT458-z2-m6 (antibody, V domains shown, IgG format; also called z2_XVT458m6) VH: QVQLVQSGAEVKKPGASVKVSCKASGYTFTNFYIHWVRQAPGQGLEWMGSIYPNYGITAYNQKFKDRVTMTVDTSTSTAYMELRSLRSDDTAVYYCARGYSYAMDYWGQGTTVTVSS VL: DIQMTQSPSSVSASVGDRVTITCSASQGISGDLNWYQQKPGKAPKLLIYHTSQLHSDVPSRFSGSGSGTDFTLTISSLQPEDFATYYCQGYSKDLLTFGGGTKLEIK",
107 pM,200 pM,8450 pM,0.000838 s⁻¹,99200 M⁻¹ s⁻¹,1410 pM,0.000132 s⁻¹,94000 M⁻¹ s⁻¹,,,,,,,,,,,,"22F13 (antibody, V domains shown, used with CH1,2,3 and corresponding CL) VH: EVQLLESGGGLVQPGGSLRLSCAASGFTFSISAMTWVRQAPGKGLEWVSTISGSGGSTYYSDSVKGRFTISRDNSKNTLYLQINSLRADDTAVYYCAKEVYGDYWGQGTLVTVSS VL: not shown",
231 pM,503 pM,6390 pM,0.000463 s⁻¹,72500 M⁻¹ s⁻¹,2430 pM,0.000221 s⁻¹,90900 M⁻¹ s⁻¹,,,,,,,,,,,,"20H02 (antibody, V domains shown, used with CH1,2,3 and corresponding CL) VH: EVLLVESGGGLVQPGGSLRLSCAASGFTFSSYSMNWVRQAPGKGLEWVSFISSSSPTLYYADSVKGRFTISRDNAKNSLYLQMNSLRDEDTAVYYCARQGLTPFDYWGQGTLVTVSS VL: EIVMTQSPATLSVFPGERATLSCRASQSVSSYLAWYQQKPGQAPRLLIYGASTRATGIPARVSGSGSGTEFILTISSLQSEDFAVYYCQQYNNWPYTFGQGTKLEIK",
95.8 pM,162 pM,7510 pM,0.000505 s⁻¹,67300 M⁻¹ s⁻¹,9610 pM,0.000773 s⁻¹,80500 M⁻¹ s⁻¹,,,,,,,,,,,,"40B20 (antibody, V domains shown, used with CH1,2,3 and corresponding CL) VH: EVQLVESGGGLVQPGGSLRLSCAASGFTFSSYSMNWVRQAPGKGLQWVSYITSSSNTMYYADSVKGRFTISRDNAKNSLYLQMNSLRDEDTAVYYCASIVGAPFDYWGQGTLVTVSS VL: EIVMTQSPATLSVSPGERATLSCRASQSVSSSLAWYQQKPGQAPRLLIYGASTRATGIPARFSGSGSGTEFTLTISSLQSEDFAAYYCQQYNNWPFTFGPGTKVDIK",

# From patent publication US20260207767A1 (ANAVEON, published 2026)
